Molecular target: GPC trimer Enc nanoparticle (Lassa GPC trimer-SpyTag coupled to encapsulin-SpyCatcher) (Lassa virus, Mouse/Sierra …, stabilised)
Experiment: BLI
Conditions: both partners purified

B1: Fab of human LASV neutralizing antibody 37.7H (Fab, V domains shown)
VH: EVQLVQSGGGLVKAGGSLRLSCAASGFTFSTYSMNWIRQAPGKGLEWVASISSRSGSHINYVDSVKGRFTISRDNARDLLYLQMNSLRVDDSALYYCARDRRSGTSPLPLDVWGQGTTVTVFS
VL: QSALTQPASVSGSPGQSITISCTGTGSDIGGYNFVSWYQQYPGKAPKLIIYEVRIRASGVSNRFSGSKSGNTASLTISGLQAEDEADYYCNSYSIHSPWVFGGGTKLTVL
- Kd: < 1 pM
- koff: < 1e-07 s⁻¹
- kon: 81100 M⁻¹ s⁻¹
